According to patent US20120129237A1:

Target: LDLR (LDL receptor) of HepG2 cells (UniProt P01130)
Test: cell-based or functional assay

Substance: PCSK9c polypeptide (novel PCSK9 variant) (from UniProt Q8NBP7 175-692) (enzyme)
- LDL uptake assay (DiI-LDL, HepG2 cells) (% more function than wildtype PCSK9): 50
